Results reported in publication PMC11109247.

What was measured:
[1] = target: ephrinB2-Fc chimaera (human ephrin-B2 residues 1-229, IEGRMD linker, human IgG1 residues 100-330) (human) (UniProt P52799); assay: SDS-PAGE without reduction and boiling
[2] = target: ephrinB3-Fc chimaera (human ephrin-B3 residues 28-224, IEGRMD linker, human IgG1 residues 100-330) (human) (UniProt Q15768); assay: SDS-PAGE without reduction and boiling
[3] = target: soluble NiVMY G ectodomain used for structural determination (residues 72-602, His tag) (Nipah virus Malaysia (NiVMY)) (UniProt Q9IH62); assay: negative-stain electron microscopy; soluble NiVMY G ectodomain alone

Sequence of ephrinB2-Fc chimaera (human ephrin-B2 residues 1-229, IEGRMD linker, human IgG1 residues 100-330) (P52799 28-229): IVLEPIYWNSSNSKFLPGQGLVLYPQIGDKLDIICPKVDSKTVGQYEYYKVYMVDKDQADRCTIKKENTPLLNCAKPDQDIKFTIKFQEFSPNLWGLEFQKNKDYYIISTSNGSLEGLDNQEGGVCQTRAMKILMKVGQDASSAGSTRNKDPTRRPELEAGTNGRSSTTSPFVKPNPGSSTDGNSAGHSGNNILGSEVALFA
Sequence of ephrinB3-Fc chimaera (human ephrin-B3 residues 28-224, IEGRMD linker, human IgG1 residues 100-330) (Q15768 28-224): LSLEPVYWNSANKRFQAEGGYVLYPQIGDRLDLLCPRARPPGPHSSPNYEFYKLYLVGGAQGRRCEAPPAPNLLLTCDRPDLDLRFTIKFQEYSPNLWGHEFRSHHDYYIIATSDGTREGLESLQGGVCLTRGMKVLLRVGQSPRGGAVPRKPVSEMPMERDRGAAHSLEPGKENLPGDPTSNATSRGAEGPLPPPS
Sequence of soluble NiVMY G ectodomain used for structural determination (residues 72-602, His tag) (Q9IH62 72-602): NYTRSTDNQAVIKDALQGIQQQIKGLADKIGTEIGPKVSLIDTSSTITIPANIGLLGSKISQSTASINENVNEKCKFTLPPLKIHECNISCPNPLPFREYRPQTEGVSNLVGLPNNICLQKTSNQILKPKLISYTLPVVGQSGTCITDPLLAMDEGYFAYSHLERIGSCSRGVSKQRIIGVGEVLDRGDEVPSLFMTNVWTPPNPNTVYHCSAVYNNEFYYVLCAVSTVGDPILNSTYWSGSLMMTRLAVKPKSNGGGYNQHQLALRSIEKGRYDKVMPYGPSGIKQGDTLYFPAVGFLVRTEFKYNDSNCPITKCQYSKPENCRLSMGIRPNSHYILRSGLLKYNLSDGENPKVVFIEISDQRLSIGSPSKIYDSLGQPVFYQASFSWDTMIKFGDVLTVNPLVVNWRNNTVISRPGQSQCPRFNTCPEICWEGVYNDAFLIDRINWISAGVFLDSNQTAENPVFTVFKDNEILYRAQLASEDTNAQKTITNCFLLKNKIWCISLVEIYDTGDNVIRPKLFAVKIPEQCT

## ephrinB2-Fc chimaera (human ephrin-B2 residues 1-229, IEGRMD linker, human IgG1 residues 100-330) (from UniProt P52799 28-229) (Fc fusion)
[1]
  stoichiometry N: 2

## ephrinB3-Fc chimaera (human ephrin-B3 residues 28-224, IEGRMD linker, human IgG1 residues 100-330) (from UniProt Q15768 28-224) (Fc fusion)
[2]
  stoichiometry N: 2

## soluble NiVMY G ectodomain used for structural determination (residues 72-602, His tag) (from UniProt Q9IH62 72-602) (domain or fragment)
[3]
  stoichiometry N: 4
